Literature values in paper doi:10.1101/2022.06.23.497301.

Target: Asp96 (UniProt position 109, PLLLLDLALLV)
Conditions: resting (ground, closed) state of bacteriorhodopsin

**Q.** Which pKa does the source give for “Bacteriorhodopsin (Halobacterium salinarum)” here?
**A.** ∼12.0
